Data as given in paper PMC10576055.
Values joined by “and” are separate entries in the source; they are usually repeats but may differ in a detail not shown here. Equal values may be shown once.

Target: T1, GIPR-Rluc8 (human), P48546
T1 chain: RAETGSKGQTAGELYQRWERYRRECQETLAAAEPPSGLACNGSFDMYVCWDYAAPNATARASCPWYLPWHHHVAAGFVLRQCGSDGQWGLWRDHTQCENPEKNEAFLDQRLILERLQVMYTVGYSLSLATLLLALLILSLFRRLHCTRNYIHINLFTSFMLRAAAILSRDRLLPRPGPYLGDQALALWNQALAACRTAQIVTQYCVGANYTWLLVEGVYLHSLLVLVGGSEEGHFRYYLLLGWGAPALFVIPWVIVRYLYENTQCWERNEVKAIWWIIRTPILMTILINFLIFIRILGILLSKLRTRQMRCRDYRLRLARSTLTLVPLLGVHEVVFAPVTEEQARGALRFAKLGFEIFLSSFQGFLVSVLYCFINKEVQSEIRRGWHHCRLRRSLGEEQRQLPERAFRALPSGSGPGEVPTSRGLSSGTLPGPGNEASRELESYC
Assay: FRET or BRET
Conditions: remark: other sources report otherwise

B1: Venus-β-arrestin 1, P49407 1-418 (natural protein)
chain: MGDKGTRVFKKASPNGKLTVYLGKRDFVDHIDLVDPVDGVVLVDPEYLKERRVYVTLTCAFRYGREDLDVLGLTFRKDLFVANVQSFPPAPEDKKPLTRLQERLIKKLGEHAYPFTFEIPPNLPCSVTLQPGPEDTGKACGVDYEVKAFCAENLEEKIHKRNSVRLVIRKVQYAPERPGPQPTAETTRQFLMSDKPLHLEASLDKEIYYHGEPISVNVHVTNNTNKTVKKIKISVRQYADICLFNTAQYKCPVAMEEADDTVAPSSTFCKVYTLTPFLANNREKRGLALDGKLKHEDTNLASSTLLREGANREILGIIVSYKVKVKLVVSRGGLLGDLASSDVAVELPFTLMHPKPKEEPPHREVPENETPVDTNLIELDTNDDDIVFEDFARQRLKGMKDDKEEEEDGTGSPQLNNR
- pEC50 of GIP (1-42) for β-arr1 recruitment (BRET): 7.7 and 7.94 and 7.67
